{"source": "paper PMC10144430", "about": "(Viruses, 2023)", "key": {"[1]": {"target": "T1, gDL268N_(306t), soluble gD L268N truncated at residue 306 ( (herpes simplex virus; …, UniProt Q69467 26-331, L268N)", "T1 construct": "source: 293T cells, transfected, purified from supernatant (Ni-NTA resin)", "experiment": "SPR; Biacore 3000, room temperature, HBS-EP; gD captured via Mab 1D3 on a CM5 chip; soluble nectin-1 injected 300 s at 5 uL/min (also pre-mixed with 1 mM TCEP, binding unaffected)", "conditions": "both partners purified"}, "[2]": {"target": "T2, cys2_(306t), soluble disulfide-bonded gD mutant (K190C-A277C) truncated at position 306 ( (herpes simplex virus)); …, UniProt Q69467 26-331, K190C | A277C, engineered disulfide bond Cys190-Cys277 (reduced where TCEP was added))", "T2 construct": "also called gD cys2; cy2; source: 293T cells, transfected, purified from supernatant (nickel column); not shown: His6, C-terminal, kept", "experiment": "SPR; Biacore 3000, room temperature, HBS-EP; gD captured via Mab 1D3 on a CM5 chip; soluble nectin-1 injected 300 s at 5 uL/min (also pre-mixed with 1 mM TCEP, binding unaffected)", "conditions": "both partners purified"}}, "data": [{"binder": "soluble nectin-1 (receptor, source: baculovirus-infected insect cells (Sf9), purified) QVVQVNDSMYGFIGTDVVLHCSFANPLPSVKITQVTWQKSTNGSKQNVAIYNPSMGVSVLAPYRERVEFLRPSFTDGTIRLSRLELEDEGVYICEFATFPTGNRESQLNLTVMAKPTNWIEGTQAVLRAKKGQDDKVLVATCTSANGKPPSVVSWETRLKGEAEYQEIRNPNGTVTVISRYRLVPSREAHQQSLACIVNYHMDRFKESLTLNVQYEPEVTIEGFDGNWYLQRMDVKLTCKADANPPATEYHWTTLNGSLPKGVEAQNRTLFFKGPINYSLAGTYICEATNPIGTRSGQVEVNITEFPYTPSPPEHGRRAGPVPTA", "values": [{"measurement": "nectin-1 binding, % of wt", "setting": "[1]", "value": "~50 % of wt"}, {"measurement": "nectin-1 binding, % of wt", "setting": "[2]", "value": "~40 % of wt"}]}]}
